One may read the Kd as a measure of binding affinity in units of concentration. Low values mean higher affinity, high ones lower affinity. As a reminder, the koff is the rate constant with which the complex falls apart. Higher therefore signals fast dissociation. In general, kon refers to the rate constant with which the complex forms. The low end stands for slow association, the high end for fast association.

To fix the notation:
T1: mgp130 ECD antigen (mouse, UniProt Q00560 23-617)
T1 construct: Antigen of biopanning and PE-ELISA; The immunogen was an ECD-human IgG1 hinge-Fc fusion; also called ECD of mouse gp130; ngp130 ECD antigen (so in the source)
T1 sequence: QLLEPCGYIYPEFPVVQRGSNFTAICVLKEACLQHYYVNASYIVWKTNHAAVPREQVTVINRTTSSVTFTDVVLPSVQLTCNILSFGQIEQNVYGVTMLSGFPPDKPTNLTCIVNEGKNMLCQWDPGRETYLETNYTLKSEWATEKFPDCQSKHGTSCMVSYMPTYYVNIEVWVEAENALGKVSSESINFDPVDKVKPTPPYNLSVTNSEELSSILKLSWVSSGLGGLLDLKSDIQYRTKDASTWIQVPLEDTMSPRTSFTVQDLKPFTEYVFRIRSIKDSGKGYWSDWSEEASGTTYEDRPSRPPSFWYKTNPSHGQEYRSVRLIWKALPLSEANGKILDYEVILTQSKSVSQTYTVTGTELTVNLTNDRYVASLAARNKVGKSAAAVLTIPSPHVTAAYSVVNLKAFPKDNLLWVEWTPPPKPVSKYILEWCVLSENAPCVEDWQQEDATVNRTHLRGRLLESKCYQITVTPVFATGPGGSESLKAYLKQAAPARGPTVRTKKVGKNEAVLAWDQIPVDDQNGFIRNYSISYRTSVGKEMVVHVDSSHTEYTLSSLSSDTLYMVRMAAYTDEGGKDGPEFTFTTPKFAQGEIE

T2: hGP130-his (Sino Biological, Catalog# 10974) (human, UniProt P40189 23-619)
T2 construct: Bought reagent; also called extracellular domain of gp130; not shown: C-terminal poly-His tag
T2 sequence: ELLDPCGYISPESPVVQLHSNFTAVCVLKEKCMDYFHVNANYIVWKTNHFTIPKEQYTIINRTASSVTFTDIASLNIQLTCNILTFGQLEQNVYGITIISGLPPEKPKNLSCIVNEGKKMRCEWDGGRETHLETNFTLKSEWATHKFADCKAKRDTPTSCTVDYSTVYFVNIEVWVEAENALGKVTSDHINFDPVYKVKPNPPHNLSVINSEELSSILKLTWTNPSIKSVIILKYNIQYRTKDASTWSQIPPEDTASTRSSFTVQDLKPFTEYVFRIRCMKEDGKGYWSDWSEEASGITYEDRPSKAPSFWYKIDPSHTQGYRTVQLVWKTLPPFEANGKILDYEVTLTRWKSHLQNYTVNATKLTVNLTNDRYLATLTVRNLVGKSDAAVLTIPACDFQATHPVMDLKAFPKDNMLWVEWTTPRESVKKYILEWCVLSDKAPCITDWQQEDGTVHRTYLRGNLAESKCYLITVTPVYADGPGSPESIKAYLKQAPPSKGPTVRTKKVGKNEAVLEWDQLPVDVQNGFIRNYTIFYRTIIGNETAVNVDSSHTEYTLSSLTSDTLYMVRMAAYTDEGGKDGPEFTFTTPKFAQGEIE

B1: mgp130_VHH40 (VHH)
VHH: QVQLQESGGGLVQPGGSLRLSCAASGFTFSNYAMSWVRQAPGKGVEWVSAINSGGSVFYADSVKGRFTISRDNAKNTLYLQLSSLKTEDTAMYYCAKHVTGDYDPSLRYGYNVWSQGTQVTVSS
notes: As periplasmic extract of the phage clone; also called anti-mouse gp130 VHH; not shown: HA/His tag of the pMECS phagemid
B2: mgp130_VHH13 (VHH)
VHH: QVQLQESGGGSVQPGGSLRLSCAASGFTFSTYDMSWVRQAPGKGLEWVSTINYSGSSTYYVDSVLGRFTIARDNAKNTLYLQMNNLQTEDTAVYYCASVKERRSNGHPIVFGDRGQGTQVTVSS
notes: as for B1
B3: mgp130_VHH6 (VHH)
VHH: QVQLQESGGGLVQPGGSLRLSCAASGFTLSTYWMYWVRQAPGKGPEWVSAVSRGGFNTYYADSVKGRFTISRDNAKNTVYLQMNSLKPEDTAVYYCMSSVSFYGWPPDRVPSPTGQGTQVTVSS
notes: as for B1
B4: mgp130_VHH3 (VHH)
VHH: QVQLQESGGGLVQPGGSLRLSCAASGFTLSTYWIYWVRQAPGKGPEWVSTVSRSGGTTYYADSVNGRFTISRDNAKNTVYLQMNNLKPEDAAVYYCLASVSNLGWPPVRAPSPTGQGTQVTVSS
notes: as for B1
B5: DR594 Mono-Fc VHH (Fc fusion)
chain: QVQLQESGGGSVQAGGSLRLSCVASASTYCTYDMHWYRQAPGKGREFVSAIDSDGTTRYADSVKGRFTISQGTAKNTVYLQMNSLQPEDTAMYYCKTVCVVGSRWSDYWGQGTQVTVSS
notes: Mono-Fc format is not described further; also called anti-hGP130 Mono-Fc VHH; not shown: Fc part of the Mono-Fc format
B6: DR595 Mono-Fc VHH (Fc fusion)
chain: QVQLQESGGGSVQAGGSLTLSCAASEYAYSTCNMGWYRQAPGKERELVSAFISDGSTYYADSVKGRFTITRDNAKNTVYLQMNSLKPEDTAIYYCSANCYRRLRNYWGQGTQVTVSS
notes: as for B5
B7: DR593 Mono-Fc VHH (Fc fusion)
chain: QVQLQESGGGSVQAGGSLRLSCAASGYPYSNGYMGWFRQAPGKEREGVATIYTGDGRTYYADSVKGRFTISRDNAKNTVDLQMSSLKPEDTAMYYCAARAAPLYSSGSPLTRARYNVWGQGTQVTVSS
notes: as for B5
B8: DR596 Mono-Fc VHH (Fc fusion)
chain: QVQLQESGGGLVQPGGSLRLSCTASGLTFDDSVMGWFRQAPGKGREAVSCISSSGANAFYADSVKGRFTISRDNAKNTLYLQMNSLKPEDTATYYCKRGHACAGYYPIPYDDYWGQGTQVTVSS
notes: as for B5
B9: DR591 Mono-Fc VHH (Fc fusion)
chain: QVQLQESGGGSVQAGGSLRLSCTASGAIASGYIDSRWCMAWFRQAPGKEREGVAAIWPGGGLTVYADSVKGRFTISRDHAKNTLYLQMNNLKPEDTAMYYCAAGSPRMCPSLEFGFDYWGQGTQVTVSS
notes: as for B5
B10: DR592 Mono-Fc VHH (Fc fusion)
chain: QVQLQESGGGSVQAGGSLRLSCTAPGFTSNSCGMDWYRQAPGKEREFVSSISTDGTTGYADSVKGRFTISKDKAKDTVYLQMNSLKPEDTGMYSCKTKDGTIATMELCDFGYWGQGTQVTVSS
notes: as for B5
B11: mgp130_VHH48 Mono-Fc VHH (Fc fusion, not shown: a dimerising Fc or GST)
chain: QVQLQESGGALVQPGGSLRLSCAASGFTFSYYAMKWVRQAPGKGLEWVSSISGGGGATYYADSVKGRFTISRDNTNDTLYLQMNSLKTEDTAVYYCAAQNLDYRGQGTQVTVSS
B12: mgp130_VHH13 Mono-Fc VHH (Fc fusion, not shown: a dimerising Fc or GST)
chain: B2 VHH
B13: mgp130_VHH6 Mono-Fc VHH (Fc fusion, not shown: a dimerising Fc or GST)
chain: B3 VHH
B14: mgp130_VHH44 Mono-Fc VHH (Fc fusion, not shown: a dimerising Fc or GST)
chain: QVQLQESGGGLVQPGGSLRLSCTASGFTFNSAHLKWERQPPGKGLEWVSFITNGGASTGYADSVKGRFTISRDDAKNTLYLQMNNLKTEDTAVYYCATGGLRGQGTQVTVSS
B15: mgp130_VHH16 Mono-Fc VHH (Fc fusion, not shown: a dimerising Fc or GST)
chain: QVQLQESGGGLVQPGGSLRLSCAASGFTFRNYAMSWVRQAPGKGLEWVSAINSGGGSTYYADSVKGRFTISRDNAKNTLYLQMNSLKPEDTAMYYCAKHVTGDYDPSLRYEYNYWSQGTQVTVSS
B16: mgp130_VHH5 Mono-Fc VHH (Fc fusion, not shown: a dimerising Fc or GST)
chain: QVQLQESGGGSVQAGGSLRLSCVISGFTYRQTFMGWFRQVVGKEREGVAAISTGGGSTIYADSVKGRFTISQDSSKDTVYLEMNGLKLEDTGMYYCAASTVITSESINRNLYQYWGQGTQVTVSS

In the first experiment the target is T1, mgp130 ECD antigen. As to the kind of experiment: periplasmic extract ELISA (PE-ELISA) of phage clones. A general note: In an ELISA, binding on a coated surface is turned into a signal by an enzyme label.
For B1, the binding result was “binds”.

Consider B2, for which the binding result is reported as “binds”.

For the molecule B3, the binding result was “binds”.

On to B4, for which the binding result is recorded as “binds”.

A further experiment concerns the target T2, hGP130-his (Sino Biological, Catalog# …). As to the kind of experiment: SPR (Biacore T200), Mono-Fc VHH captured on Protein A chip, hGP130-his in solution, 1:1 fit. Here is the method:
A representative example from each hgp130 VHH and mgp130 VHH clonotype generated in accordance with Examples 1-3 was selected for evaluation of binding via SPR as follows. […] All experiments were conducted in 10 mM Hepes, 150 mM NaCl, 0.05% (v/v) Polysorbate 20 (PS20) and 3 mM EDTA (HBS-EP+ buffer) on a Biacore T200 instrument equipped with a Protein A derivatized sensor chip (Cytiva). Mono-Fc VHH ligands were flowed at 5 μl/min for variable time ranging from 18 to 300 seconds, reaching the capture loads listed in the tables below. Following ligand capture, […], typically comprising at least five concentrations between 1 μM and 1 nM, were performed in either high performance or single cycle kinetics mode. Surface regeneration was achieved by flowing 10 mM glycine-HCl, pH 1.5 (60 seconds, 50 μL/min). Buffer-subtracted sensograms were processed with Biacore T200 Evaluation Software and globally fit with a 1:1 Langmuir binding model (bulk shift set to zero) to extract kinetics and affinity constants (kₐ, kd, KD). RMAX<100 RU indicates surface density compatible with kinetics analysis. Calculated Rₘₐₓ values were generated using the equation: Rₘₐₓ=Load (RU)×valency of ligand×(Molecular weight of analyte/Molecular weight of ligand). Surface activity was defined as the ratio of experimental/calculated Rmax.
A general note: In SPR one partner is held on a chip, and binding of the other changes the refractive index at the surface.
Molecule B5 returned a Kd of 58 nM, a koff of 0.0095 s⁻¹ and a kon of 160000 M⁻¹ s⁻¹.

In the case of B6, binding was characterised by a dissociation constant (Kd) of 41 nM, the koff was 0.0073 s⁻¹ and the kon turned out to be 180000 M⁻¹ s⁻¹.

As to B7, binding was characterised by a dissociation constant (Kd) of 82 nM, the koff worked out at 0.021 s⁻¹ and the kon was 250000 M⁻¹ s⁻¹.

In turn, B8 returned a Kd of 44 nM, a koff of 0.0082 s⁻¹ and a kon of 190000 M⁻¹ s⁻¹.

Regarding B9, the dissociation constant Kd is 33 nM, the koff came out at 0.0019 s⁻¹ and the kon turned out to be 59000 M⁻¹ s⁻¹.

Regarding B10, the Kd was 38 nM, the koff was 0.0059 s⁻¹ and the association rate constant (kon) stood at 160000 M⁻¹ s⁻¹.

A further experiment deals with hGP130-his (Sino Biological, Catalog# 10974) (human) (UniProt P40189). The experiment is described as above.
Molecule B11 showed an equilibrium dissociation constant (Kd) of 42 nM, a koff of 0.0018 s⁻¹ and a kon of 43000 M⁻¹ s⁻¹.

Take B12: the Kd was 35.6 nM, the koff was found to be 0.0037 s⁻¹ and the kon was 110000 M⁻¹ s⁻¹.

In turn, B13 yielded a Kd of 229 nM, a koff of 0.03 s⁻¹ and a kon of 130000 M⁻¹ s⁻¹.

In turn, B14 gave a Kd of 6 nM, a koff of 0.0012 s⁻¹ and a kon of 200000 M⁻¹ s⁻¹.

For B15, the Kd is 17.4 nM, the koff worked out at 0.00036 s⁻¹ and the association rate constant (kon) was determined as 21000 M⁻¹ s⁻¹.

B16 gave an equilibrium dissociation constant (Kd) of 90 nM, a koff of 0.0081 s⁻¹ and a kon of 90000 M⁻¹ s⁻¹.

Values taken from patent publication US20260176365A1 (SYNTHEKINE, published 2026).
